Laboratory results: US20240052063A1, “Binding Proteins 2” (Nucleus Therapeutics Pty. Ltd., priority 2017, published 2024)
Positions count from the first letter of the chain named. Entries after “also recorded” stand apart in the source; their conditions may differ.

B1: Variant 10: cell penetrating anti-DNA di-scFv variant, amino acid sequence SEQ ID NO: 38 (protein)
scFv: DIQMTQSPSSLSASVGDRVTITCRASKSVSTSSYSYMHWYQQKPGKAPKLLIKYASYLESGVPSRFSGSGSGTDFTLTISSLQPEDFATYYCQHSREFPWTFGQGTKVEIKRADAAPGGGGSGGGGSGGGGSEVQLVESGGGLVQPGGSLRLSCAASGFTFSNYGMHWVRQAPGKGLEWVSYISSSSSTIYYADSVKGRFTISRDNAKNSLYLQMNSLRAEDTAVYYCARRGLLLDYWGQGTTVTVSSASTKGPSVFPLAPLESSGSDIQMTQSPSSLSASVGDRVTITCRASKSVSTSSYSYMHWYQQKPGKAPKLLIKYASYLESGVPSRFSGSGSGTDFTLTISSLQPEDFATYYCQHSREFPWTFGQGTKVEIKRADAAPGGGGSGGGGSGGGGSEVQLVESGGGLVQPGGSLRLSCAASGFTFSNYGMHWVRQAPGKGLEWVSYISSSSSTIYYADSVKGRFTISRDNAKNSLYLQMNSLRAEDTAVYYCARRGLLLDYWGQGTTVTVSS
modifications: Variant 10
B2: Variant 16: cell penetrating anti-DNA di-scFv variant, amino acid sequence SEQ ID NO: 44 (protein)
scFv: B1 scFv with S28T, S186G, S295T, S453G
modifications: Variant 16
B3: Variant 11: cell penetrating anti-DNA di-scFv variant, amino acid sequence SEQ ID NO: 39 (protein)
scFv: B1 scFv with L143V, G174E, A207S, S210T, L410V, G441E, A474S, S477T
modifications: Variant 11
B4: Variant 13: cell penetrating anti-DNA di-scFv variant, amino acid sequence SEQ ID NO: 41 (protein)
scFv: DIQMTQSPSSLSASLGDRATITCRASKTVSTSSYSYMHWYQQKPGQPPKLLIKYASYLESGVPSRFSGSGSGTDFTLTISSLQPEDAATYYCQHSREFPWTFGGGTKVEIKRADAAPGGGGSGGGGSGGGGSEVQLVESGGGLVQPGGSLRLSCAASGFTFSNYGMHWVRQAPGKGLEWVSYISSGSSTIYYADSVKGRFTISRDNAKNSLYLQMNSLRAEDTAVYYCARRGLLLDYWGQGTTVTVSSASTKGPSVFPLAPLESSGSDIQMTQSPSSLSASLGDRATITCRASKTVSTSSYSYMHWYQQKPGQPPKLLIKYASYLESGVPSRFSGSGSGTDFTLTISSLQPEDAATYYCQHSREFPWTFGGGTKVEIKRADAAPGGGGSGGGGSGGGGSEVQLVESGGGLVQPGGSLRLSCAASGFTFSNYGMHWVRQAPGKGLEWVSYISSGSSTIYYADSVKGRFTISRDNAKNSLYLQMNSLRAEDTAVYYCARRGLLLDYWGQGTTVTVSS
modifications: Variant 13
B5: Variant 15: cell penetrating anti-DNA di-scFv variant, amino acid sequence SEQ ID NO: 43 (protein)
scFv: B4 scFv with L143D, Q145K, G174E, A207S, S210T, L410D, Q412K, G441E, A474S, S477T
modifications: Variant 15

What was measured:
[1] = system: HDR-proficient DLD1 cells; assay: Selectivity of combination therapy in HDR-proficient cells; format: cell-based; settings: 5 nM olaparib, 10 μM di-scFv, alone or combined
Method: Homology-directed repair (HDR) deficient BRCA2-DLD1 cells and PTEN-U251 cells were treated with control, 5 nM olaparib, 10 μM di-scFv, or 10 μM di-scFv+5 nM olaparib. Surviving fraction was determined by colony formation assay.
It was then determined whether the combination of di-scFv and olaparib is simply universally cytotoxic, regardless of DNA repair status. To evaluate this possibility, HDR-proficient DLD1 cells were treated with the above regimen to confirm selectivity of combination therapy to HDR-deficient malignant cells.

[2] = system: PTEN-deficient U251 human glioma cells; assay: Phospho-53BP1 foci accumulation (DNA damage), PTEN-deficient cells; format: cell-based
Method: A matched pair of PTEN-proficient and deficient U251 human glioma cells were treated with control media or media containing Variant 10, 11, 13, 15, or 16 for twenty-four hours. Cells were then washed, fixed, blocked, and then probed with an anti-phospho-53BP1 antibody overnight. Cells were then washed and incubated with an AlexaFluor555-conjugated secondary antibody. Finally, cells were washed, counterstained with DAPI, and visualized under a fluorescence microscope. Images were saved and evaluated by CellProfiler to determine mean number of phospho-53BP1 foci per cell.
(§1) A matched pair of BRCA2-proficient and deficient DLD1 colon cancer cells and PTEN-proficient and deficient U251 human glioma cells were treated with control media or media containing 10 μM di-scFv variant 13 (SEQ ID NO: 41), 5 nM olaparib, or combination treatment.

[3] = system: BRCA2-deficient DLD1 colon cancer cells; assay: Cell viability by Trypan blue exclusion assay, BRCA2-deficient cells; format: cell-based; settings: BRCA2-deficient DLD1, 7 days, FIG. 10
Method: (§2) Next, a matched pair of BRCA2-proficient and deficient DLD1 colon cancer cells was treated with control media or media containing Variants 10, 13, 15, or 16. Cell viability was determined 7 days later by Trypan blue exclusion assay and by direct visualization of cell morphology by light microscopy. […] Representative light microscope images shown the changes in morphology in the BRCA2-deficient cancer cells treated with the variants are shown in FIG. 10, Panel A. Quantitative analysis of the cell survival by Trypan blue exclusion assay is shown in FIG. 10, Panel B.

[4] = system: BRCA2-proficient DLD1 colon cancer cells; assay: Cell viability by Trypan blue exclusion assay, BRCA2-proficient cells; format: cell-based; settings: BRCA2-proficient DLD1, 7 days, FIG. 10
Method: as §2

[5] = system: PTEN-deficient U87 human glioma cells; assay: Cell viability by Trypan blue exclusion assay and light microscopy; format: cell-based; settings: PTEN-deficient U87, 7 days after treatment, FIG. 9
Method: Cell viability of PTEN-deficient U87 human glioma cells was also assessed following treatment with control media or media containing Variants 10, 13, 15, or 16. Cell viability was determined 7 days after treatment using Trypan blue exclusion assay and by direct visualization of cell morphology by light microscopy.

[6] = system: BRCA2-deficient DLD1 colon cancer cells; assay: Phospho-53BP1 foci accumulation, BRCA2-deficient cells; format: cell-based; settings: FIG. 17
Method: as §1

[7] = system: DLD1 colon cancer cells; assay: Alkaline phosphatase-based survey of nuclear penetration; format: cell-based; settings: DLD1 cells treated one hour; FIG. 5
[8] = system: human GBM cancer stem cells (CSCs) grown as tumour spheres; assay: GBM cancer stem cell tumour spheres: penetration and sphere volume; format: cell-based; settings: listed as di-scFv (SEQ ID NO: 41)
Method: GBM cancer stem cells extracted from primary human GBM tumours from patients and grown as spheres were treated with control or di-scFv (SEQ ID NO: 41), and the effect of dose and incubation time on reduction of sphere volume was evaluated by confocal micrographs of DX1-rhodamine cellular penetration into GBM cells. Tumour spheres are recognised as a useful tool for pre-clinical studies as they retain tumour heterogeneity and more closely represent the original patient tumour.

[9] = system: Primary human glioblastoma (GBM) cancer cells; assay: Percentage of live cells by trypan blue staining; format: cell-based; settings: seven primary human GBM tumour explants, FIG. 14; listed as di-scFv (SEQ ID NO: 41)
Method: Primary human glioblastoma (GBM) cancer cells extracted from primary human GBM tumours from patients were treated with control or di-scFv (SEQ ID NO: 41), and percentage of live cells was evaluated by trypan blue staining.

[10] = system: GBM cells extracted from human GBM tumours (intracranial); assay: Orthotopic mouse model of GBM; format: in vivo
Excerpt: An orthotopic mouse model of GBM was generated by intracranial injection of GBM cells extracted from human GBM tumours.

[11] = system: DLD-1 cells; assay: Nuclear penetration by protein L immunostain of fixed cells; format: cell-based; settings: FIG. 11, listed as di-scFv (SEQ ID NO: 41)
Method: (§3) DLD-1 and MCF-7 cells were treated with control or di-scFv (SEQ ID NO: 41), and nuclear penetration was evaluated by protein L immunostain of fixed cells.

[12] = system: MCF-7 cells; assay: as above; format: cell-based; settings: FIG. 12, listed as di-scFv (SEQ ID NO: 41)
Method: as §3

[13] = PTEN-deficient U251, twenty-four hours, FIG. 8

| Molecule | cell death [1] | mean number of phospho-53BP1 foci per cell [2, 13] | cell viability (cell killing) [3] | cell viability (toxicity) [4] | cell viability relative to control treated cells [5] | nuclear penetration (histogram of cell counts versus nuclear staining intensity) relative to the yeast prototype [7] | also measured |
| --- | --- | --- | --- | --- | --- | --- | --- |
| O=C(c1cc(Cc2n[nH]c(=O)c3ccccc23)ccc1F)N1CCN(C(=O)C2CC2)CC1 [olaparib, reference compound] | remain resistant | – | – | – | – | – | – |
| B1 | – | increased the number of foci | killed by the variants | not toxic | caused reductions in cell viability | – | – |
| B2 | – | increased the number of foci | killed by the variants | not toxic | caused reductions in cell viability | – | – |
| B3 | – | increased the number of foci | – | – | – | – | – |
| B4 | No effect on cell death | increased the number of foci | killed by the variants | not toxic | caused reductions in cell viability | notable right shift and narrowing of distributions relative to the yeast prototype | mean number of phospho-53BP1 foci per cell ([6]; BRCA2-deficient DLD1, 10 μM di-scFv, 5 nM olaparib): increased the number of phospho-53BP1 foci; percentage of P53BP1-positive cells ([6]; HDR-deficient DLD1, 24 hour treatment): increased; percentage of P53BP1-positive cells ([2]; HDR-deficient U251, 24 hour treatment, FIG. 17): increased; mean number of phospho-53BP1 foci per cell ([2]; PTEN-deficient U251, 10 μM di-scFv, 5 nM olaparib, FIG. 17): increased the number of phospho-53BP1 foci; cellular penetration into GBM spheres ([8]; confocal micrographs, FIG. 15A): demonstrated cellular penetration in GBM spheres; also recorded: penetrates human glioblastoma spheres; sphere volume ([8]; effect of dose and incubation time, FIG. 15B, C): reduced sphere volume in dose-dependent and time-dependant manner; also recorded: reduces sphere volume in a time-dependent (B) and dose-dependent (C) manner; cancer cell death (percentage of live cells) [9]: Five of the seven glioblastoma tumour explants treated with di-scFv (SEQ ID NO: 41) showed significant cancer cell death; also recorded: kills primary human glioblastoma cells; incidence of apoptosis in tumours (TUNEL staining) ([10]; FIG. 16B): increased incidence of apoptosis; toxicity or weight loss associated with treatment ([10]; body weight profile, FIG. 16D): No toxicity or weight loss; median survival longer than controls ([10]; controls median 72 days): more than 20%; mean survival ([10]; group of 7 mice, FIG. 16E): 83 days; median survival ([10]; group of 7 mice, FIG. 16E): 87 days; di-scFv in adjacent normal brain cells (protein L immunostaining) ([10]; normal brain, FIG. 16C): not evident; crossing of the blood brain barrier ([10]; suggested by tumour size reduction and TUNEL staining): successfully crossed the blood brain barrier; reduction of glioblastoma tumour size versus control mice ([10]; tail vein injection, brain sections, FIG. 16A): more than 40%; di-scFv in GBM tumour cells (protein L immunostaining) ([10]; tumour tissue, FIG. 16C): detected in the nuclei of GBM tumour cells; nuclear penetration [11]: successfully penetrated; also recorded: penetrates HDR deficient DLD-1 colon cancer cell nuclei; nuclear penetration [12]: successfully penetrated; also recorded: penetrates HDR deficient MCF-7 breast cancer cell nuclei |
| B5 | – | increased the number of foci | killed by the variants | not toxic | caused reductions in cell viability | notable right shift and narrowing of distributions relative to the yeast prototype | – |
